The values that follow come from the supplement of paper PMC10567573.

B1: MATN2 (parent)
chain: FSLKTFKRKSEVERAVKRMRHLST
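Further: lentivirally expressed fusions sorted by FACS into six bins by GFP to DsRed ratio, PSI derived from sequencing read proportions per bin multiplied by bin number.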

The variants in the data set derive from B1. The data set is described as follows: protein stability index of a GFP-peptide fusion (GPS, HEK-293T) (PSI 1-6); higher = more stable. Conditions: c terminus: a fixed tail appended.
As to FSLLTFKRKSEVERAVKRMRHLST, the protein stability index turned out to be 1.78.
Regarding FSLSTFKRKSEVERAVKRMRHLST, the protein stability index is 2.09.
Then FSLCTFKRKSEVERAVKRMRHLST, with 1.74; and FSLDTFKRKSEVERAVKRMRHLST, with 2.05; and FSLRTFKRKSEVERAVKRMRHLST, with 2.38.
Then FSLNTFKRKSEVERAVKRMRHLST, with 2.39; and FSLMTFKRKSEVERAVKRMRHLST, with 3.59.
The same measure for FSLHTFKRKSEVERAVKRMRHLST: 2.21; for FSLKTFKRKWEVERAVKRMRHLST: 2.88; for FSLKTFKRKEEVERAVKRMRHLST: 2.42.
For the variant FSLKTFKRKNEVERAVKRMRHLST, the protein stability index was found to be 3.07.
Then FSLKTFKRKHEVERAVKRMRHLST, with 2.77; and FSLKTFKRKPEVERAVKRMRHLST, with 2.62; and FSLKTFKRKFEVERAVKRMRHLST, with 1.77.
With FSLKTFKRKKEVERAVKRMRHLST, the protein stability index turned out to be 2.21.
Then FSLKTFKRKLEVERAVKRMRHLST, with 1.39; and FSLKTFKRKDEVERAVKRMRHLST, with 2.05.
On to FSLKTFKRKMEVERAVKRMRHLST, for which the protein stability index is 1.91.
On to FSLKTFKRKVEVERAVKRMRHLST, for which the protein stability index worked out at 3.04.
Then FSLKTFKRKIEVERAVKRMRHLST, with 1.49.
Then FSLKTFKRKAEVERAVKRMRHLST, with 1.72.
Then FSLKTFKRKGEVERAVKRMRHLST, with 1.99.
In the case of FSLKTFKRKYEVERAVKRMRHLST, the protein stability index came out at 2.3.
Then FSLKTFKRKQEVERAVKRMRHLST, with 2.26.
As for FSLKTFKRKTEVERAVKRMRHLST, the protein stability index was determined as 2.73.
Then FSLKTFKRKREVERAVKRMRHLST, with 2.46.
The same measure for FSLKTFKRDSEVERAVKRMRHLST: 2.46; for FSLKTFKRFSEVERAVKRMRHLST: 2.25.
Consider FSLKTFKRMSEVERAVKRMRHLST, for which the protein stability index was found to be 2.98.
Consider FSLKTFKRTSEVERAVKRMRHLST, for which the protein stability index is 2.09.
The same measure for FSLKTFKRYSEVERAVKRMRHLST: 2.12; for FSLKTFKRRSEVERAVKRMRHLST: 1.84.
The same measure for FSLKTFKRPSEVERAVKRMRHLST: 1.84; for FSLKTFKRASEVERAVKRMRHLST: 1.78; for FSLKTFKRISEVERAVKRMRHLST: 1.91.
The same measure for FSLKTFKRWSEVERAVKRMRHLST: 3.18; for FSLKTFKRVSEVERAVKRMRHLST: 1.25.
Consider FSLKTFKRNSEVERAVKRMRHLST, for which the protein stability index was 1.65.
With FSLKTFKRCSEVERAVKRMRHLST, the protein stability index stood at 2.91.
Then FSLKTFKRESEVERAVKRMRHLST, with 1.62; and FSLKTFKRGSEVERAVKRMRHLST, with 2.46.
The same measure for FSLKTFKRSSEVERAVKRMRHLST: 2.58.
Then FSLKTFKRQSEVERAVKRMRHLST, with 2.52; and FSLKTFKRKSLVERAVKRMRHLST, with 2.56; and FSLKTFKRKSGVERAVKRMRHLST, with 2.46.
FSLKTFKRKSDVERAVKRMRHLST: the protein stability index was found to be 2.39.
In the case of FSLKTFKRKSQVERAVKRMRHLST, the protein stability index was determined as 2.44.
Then FSLKTFKRKSHVERAVKRMRHLST, with 2.29; and FSLKTFKRKSNVERAVKRMRHLST, with 2.82.
As to FSLKTFKRKSCVERAVKRMRHLST, the protein stability index was 1.76.
Regarding FSLKTFKRKSSVERAVKRMRHLST, the protein stability index amounted to 1.98.
Then FSLKTFKRKSKVERAVKRMRHLST, with 3.17; and FSLKTFKRKSMVERAVKRMRHLST, with 2.8; and FSLKTFKRKSRVERAVKRMRHLST, with 3.21.
As to FSLKTFKRKSFVERAVKRMRHLST, the protein stability index came out at 2.01.
For the variant FSLKTFKRKSAVERAVKRMRHLST, the protein stability index turned out to be 2.52.
With FSLKTFKRKSPVERAVKRMRHLST, the protein stability index turned out to be 2.17.
The same measure for FSLKTFKRKSIVERAVKRMRHLST: 1.96.
With KSLKTFKRKSEVERAVKRMRHLST, the protein stability index amounted to 3.46.
DSLKTFKRKSEVERAVKRMRHLST: the protein stability index was 2.77.
For the variant QSLKTFKRKSEVERAVKRMRHLST, the protein stability index is 3.62.
For the variant ESLKTFKRKSEVERAVKRMRHLST, the protein stability index was 2.72.
For TSLKTFKRKSEVERAVKRMRHLST, the protein stability index turned out to be 3.02.
For the variant NSLKTFKRKSEVERAVKRMRHLST, the protein stability index turned out to be 3.33.
Then PSLKTFKRKSEVERAVKRMRHLST, with 3; and WSLKTFKRKSEVERAVKRMRHLST, with 1.69.
Then CSLKTFKRKSEVERAVKRMRHLST, with 2.45; and MSLKTFKRKSEVERAVKRMRHLST, with 2.24.
Then HSLKTFKRKSEVERAVKRMRHLST, with 3.6.
With GSLKTFKRKSEVERAVKRMRHLST, the protein stability index is 2.86.
On to YSLKTFKRKSEVERAVKRMRHLST, for which the protein stability index amounted to 3.13.
As for ASLKTFKRKSEVERAVKRMRHLST, the protein stability index was 3.04.
Turning to LSLKTFKRKSEVERAVKRMRHLST, the protein stability index worked out at 2.19.
Take VSLKTFKRKSEVERAVKRMRHLST: the protein stability index came to 2.56.
The same measure for ISLKTFKRKSEVERAVKRMRHLST: 2.39; for RSLKTFKRKSEVERAVKRMRHLST: 2.37; for SSLKTFKRKSEVERAVKRMRHLST: 2.87.
The same measure for FSLKTTKRKSEVERAVKRMRHLST: 2.75.
In the case of FSLKTHKRKSEVERAVKRMRHLST, the protein stability index is 2.94.
As for FSLKTQKRKSEVERAVKRMRHLST, the protein stability index is 2.85.
The same measure for FSLKTEKRKSEVERAVKRMRHLST: 3.27; for FSLKTIKRKSEVERAVKRMRHLST: 2.14.
The same measure for FSLKTPKRKSEVERAVKRMRHLST: 2.67; for FSLKTNKRKSEVERAVKRMRHLST: 2.38.
For the variant FSLKTCKRKSEVERAVKRMRHLST, the protein stability index came out at 2.28.
With FSLKTVKRKSEVERAVKRMRHLST, the protein stability index stood at 2.96.
Then FSLKTKKRKSEVERAVKRMRHLST, with 3.47.
Then FSLKTDKRKSEVERAVKRMRHLST, with 2.43; and FSLKTAKRKSEVERAVKRMRHLST, with 2.87; and FSLKTWKRKSEVERAVKRMRHLST, with 1.16.
Then FSLKTMKRKSEVERAVKRMRHLST, with 2.29; and FSLKTYKRKSEVERAVKRMRHLST, with 3.29; and FSLKTLKRKSEVERAVKRMRHLST, with 2.55.
For the variant FSLKTRKRKSEVERAVKRMRHLST, the protein stability index stood at 2.73.
